Results reported in patent US5962253A, “Oxidative decarboxylation of peptides catalyzed by flavoprotein EpiD” (Boehringer Ingelheim International GmbH, priority 1996, dated 1999).
Non-standard residues stand in square brackets, D forms with d. No end group written: not given here. hCys = N[C@@H](CCS)C(=O)O

Assays:
[1] = biological target: T1, flavoprotein EpiD (Staphylococcus epidermidis, UniProt P30197); assay: EpiD enzyme assay, oxidative decarboxylation of single peptides (reversed phase chromatography, ES-MS); type: biochemical, Staphylococcus epidermis; set-up: key to Reaction with EpiD: +: reaction with EpiD; -: no reaction with EpiD occurred, this indicates that using the given assay conditions, no reaction product was detected; settings: for Reaction with EpiD: single peptide determinations, 0.5-1 h at 37° C., pH 8.0, 3 mM dithiothreitol; for substrate of EpiD / reaction with EpiD (in words): single peptides
T1 construct: made in house; host or cells: E. coli K38 (pGP1-2, pT7-5epiD)
Source text: For the determination of the minimal size of the substrate, synthetic peptides with increasingly larger deletions of the amino terminus were used (Table 1). Reaction products were identified by their increasing hydrophobicity, increased absorption at 260 nm in 0.1% trifluoroacetic acid/H2 O/acetonitrile (FIGS. 19A and 19B), and the mass decrease of 46 Da as compared with the unmodified peptides. […] For a further study of the substrate specificity of EpiD, the heptapeptide SFNSYCC (SEQ ID NO: 2) was used. The serine and cysteine residues of the peptide SFNSYCC (SEQ ID NO: 2) form the COOH-terminal bicyclus of mature epidermin, and the possibility could not be excluded that amino acid exchanges in this peptide have an influence on the reaction with EpiD.
The method of the invention, which provides for the oxidative decarboxylation of a peptide, can be carried out in vitro under the following conditions, although it will be clear to those of ordinary skill in the art that the parameters given herein for carrying out the enzymatic reaction may be varied. The enzymatic reaction can be carried out at a temperature of 37° C. in 20 mMTris/HCl buffer (pH 8.0) containing 3 mM dithiothreitol, 1-2 μg of EpiD (the concentration of which is determined according to the method of Bradford, Anal. Biochem. 72:248-254 (1976)), and 10-50 μg of peptide, in a total volume of 1 ml. The enzymatic reaction is carried out for between 0.5 and 1 h.
Purification of EpiD and Enzyme Assay--EpiD was purified as described previously using E. coli expression plasmid pT7-5apiD (Kupke, T. et al, J. Bacteriol. 174:5354-5361 (1992)). The concentration of the EpiD solution was determined according to Bradford (Bradford, M. M., Anal. Biochem. 72:248-254 (1976)); the concentrations of the precursor peptide solutions were estimated by the absorbance at 205 nm using an extinction coefficient of 31 for a protein solution of 1 mg/ml (Janson, J. C., & Ryden, L., Methods Enzymol. 193:441-455 (1990)); the synthetic peptic substrates were weighed out. The enzyme was assayed for 0.5-1 h at 37° C. in 20 mM Tris/HCl buffer (pH 8.0) containing 3 mM dithiothreitol, 1-2 μg of EpiD, and 10-25 μg of precursor peptide or 50 μg of synthetic peptide in a total volume of 1 ml. The reaction mixture was then separated by reversed phase chromatography using a μRPC C2/C18 SC 2.1/10 column (Pharmacia Biotech Inc.). Peptides were eluted with a linear gradient of 0-50% acetronitrile, 0.1% trifluoroacetic acid in 3.8 ml with a flow rate of 200 μl/min. The absorbance was measured simultaneously at 214, 260, and 280 nm. The peptides were collected by the peak fractionation method, dried with a vacuum concentrator, stored at -70° C., dissolved in 30% acetonitrile, and analyzed by ES-MS.

[2] = biological target: EpiD (Staphylococcus epidermidis, UniProt P30197); settings: cited from earlier work; for Reaction with EpiD: reducing conditions, reversed phase chromatography and ES-MS
[3] = biological target: T1, flavoprotein EpiD; assay: Incubation of peptide libraries with EpiD, ES-MS and neutral loss mass spectrometry; type: biochemical, Staphylococcus epidermis; settings: ES-MS and neutral loss scans
Procedure: Heptapeptide sublibraries with one variable amino acid residue (wherein the variable amino acid residue can be any one of the 20 common amino acids Ala, Arg, Asn, Asp, Cys, Gln, Glu, Gly, His, Ile, Leu, Lys, Met, Phe, Pro, Ser, Thr, Trp, Tyr, or Val) at positions 1-7 of the peptide substrate S^1 FNSYCC^7 (SEQ ID NO: 2) were synthesized and incubated with EpiD. Peptides were identified by their masses using product ion scans and neutral loss scans and by comparison of the mass spectra obtained after various incubation times. The heptapeptides with a single amino acid substitution at positions 1-4 were substrates of EpiD (Table 2). At positions 5-7 of the peptide, not all amino acid residues were possible, so the last three amino acids determined the substrate specificity for EpiD (Table 2). […]
Peptide libraries were dissolved to a concentration of 1-2 mg/ml in 20 mM Tris/HCl buffer (pH 8.0) containing 3 mM dithiothreitol. […] Neutral loss scans were recorded after 3 h of incubation.
Electrospray and Tandem Mass Spectrometry--Electrospray mass spectra (Bruins, A. P., et al., Anal. Chem. 59:2642-2646 (1987); Covey, T. R., et al., Rapid Commun. Mass Spectrom. 2:249-256 (1988)) were recorded on a triple quadrupole mass spectrometer API III with a mass range of m/z 10-2400 equipped with a nebulizer-assisted electrospray ("ion spray") source (Sciex, Thornbill, Ontario, Canada). […]

[4] = Determination of the isoelectric point by isoelectric focusing and immunoblot; type: physicochemical; settings: most basic band used
Procedure: Therefore, the modified peptides should be more basic than the educts. In order to verify this hypothesis, the isoelectric points of the products and the educts were determined. […] All of the bands were more basic than the educts, and for determination of the isoelectric points, the most basic bands were used. In the case of EpiAR-1Q -46 Da, the most basic band was the most intense band.
The peptide mixture Serva No. 39211 was used as an isoelectric focusing standard. Isoelectric focusing was carried out according to the instruction manual of Serva. The focused peptides were blotted on nitrocellulose and detected with an anti-MBP-EpiA antiserum (Kupke, T., et al., FEMS Lett. 112:43-48 (1993)) using the ECL system (Amersham Corp.).

Chain of EpiD (P30197 whole entry): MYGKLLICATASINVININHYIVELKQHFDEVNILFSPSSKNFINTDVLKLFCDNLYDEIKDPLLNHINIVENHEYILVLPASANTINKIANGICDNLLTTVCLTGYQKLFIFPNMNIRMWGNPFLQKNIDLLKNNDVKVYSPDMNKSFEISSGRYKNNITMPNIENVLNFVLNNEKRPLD
T1 sequence (P30197 whole entry): as above

| Molecule | Reaction with EpiD [1] | substrate of EpiD / reaction with EpiD (in words) [1] | other results |
| --- | --- | --- | --- |
| SFNSYCHCy (SFNSYC[hCys]; cysteine pairing not given here) [peptide SFNSYC with COOH-terminal homocysteine residue] | - | not substrates of EpiD |  |
| [Zn+2] [Zn^2+, reference compound] |  |  | effect on the EpiD reaction [2]: inhibited |
| Proepidermin: COOH-terminal proepidermin fragment of EpiA (amino acids +1 to +22) (IASKFICTPGCAKTGSFNSYCC) | + |  | Reaction with EpiD [2]: reacts |
| EpiAS + 19A (MEAVKEKNDLFNLDVKVNAKESNDSGAEPRIASKFICTPGCAKTGSFNSYCC) | + | substrate for oxidative decarboxylation |  |
| EpiAdesC^+22 (MEAVKEKNDLFNLDVKVNAKESNDSGAEPRIASKFICTPGCAKTGSFNSYC) | - | not all peptides with a COOH-terminal cysteine residue were a substrate of EpiD |  |
| SFNSMCC |  |  | substrate of EpiD / reaction product in library (in words) [3]: weak |
| EpiAC + 22S (MEAVKEKNDLFNLDVKVNAKESNDSGAEPRIASKFICTPGCAKTGSFNSYCC) | - | No reaction occurred |  |
| SFNSYCC--NH2 (SFNSYCC-NH2; cysteine pairing not given here) [the amide of SFNSYCC] | - | not substrates of EpiD |  |
| SFNSYGC | - |  |  |
| K-EpiA (MEAVKEKNDLFNLDVKVNAKESNDSGAEPRIASKFICTPGCAKTGSFNSYCC) | + |  |  |
| EpiAR-1Q: mutated EpiA with a mutation in the cleavage sequence of the EpiA leader (MEAVKEKNDLFNLDVKVNAKESNDSGAEPRIASKFICTPGCAKTGSFNSYCC) | + |  | Reaction with EpiD [2]: reacts; isoelectric point [4]: 5.0 pH |
| Synthetic proepidermin: chemically synthesized proepidermin (amino acids +1 to +22 of EpiA) (IASKFICTPGCAKTGSFNSYCC) | + |  |  |
